In patent US20240148885A1, “TARGETED BIFUNCTIONAL DEGRADERS” (YALE UNIVERSITY, priority 2021, published 2024):
Like-named read-outs stand apart in the source and are kept apart here.

How the values were obtained:
[1] = biological target: streptavidin AF488 (Streptomyces avidinii, UniProt P22629); test: Degradation of streptavidin AF488 (FIG. 12); format: cell-based
From the text: Some studies have been done on other bifunctional molecules comprising an LRP1 binding motif depicted in FIG. 2 and a biotin Target binding motif, wherein these bifunctional molecules also noncovalently bind streptavidin (FIG. 11).

[2] = tested on: murine brain endothelial cells; conditions: noncovalently bound streptavidin AF647 cargo, FIG. 8, FIG. 9
[3] = biological target: streptavidin (Streptomyces avidinii, UniProt P22629); test: ELISA: biotinylated Angiopep-2 binding to streptavidin (FIG. 7)
Sequence of streptavidin (P22629 25-183, species assumed): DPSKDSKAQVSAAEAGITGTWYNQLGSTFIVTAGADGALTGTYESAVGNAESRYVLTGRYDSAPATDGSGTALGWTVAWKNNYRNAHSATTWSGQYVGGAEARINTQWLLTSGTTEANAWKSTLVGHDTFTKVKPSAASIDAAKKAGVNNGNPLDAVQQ

[4] = biological target: streptavidin AF647 (Streptomyces avidinii, UniProt P22629); test: Saturable delivery (uptake) of streptavidin AF647 (FIG. 6); format: cell-based; conditions: increasing concentration of bifunctional molecule, cells not given
Sequence of streptavidin AF647 (P22629 25-183): as the sequence (P22629 25-183, species assumed) above

[5] = tested on: astrocytes; test: Cellular assay: internalization of streptavidin in astrocytes (FIG. 9); format: cell-based; conditions: noncovalently bound cargo

Sequence of streptavidin AF488 (P22629 25-183): as the sequence (P22629 25-183, species assumed) above

| Substance | degradation of target protein streptavidin AF488 [1] | delivery / internalization of streptavidin into brain endothelial cells [2] | delivery / internalization of streptavidin into brain endothelial cells ([2]; listed as Angiopep-2-Biotin) | binding to streptavidin (ELISA) [3] | level of streptavidin AF647 uptake [4] | internalization of streptavidin into astrocytes [5] |
| --- | --- | --- | --- | --- | --- | --- |
| Ac.Ac.Biotin Angiopep-2: Angiopep-2 modified via acetylation and bonded to a biotin Target binding motif | mediated degradation of streptavidin AF488 | – | – | – | – | – |
| biotinylated Angiopep-2 | – | delivers streptavidin AF647 to murine brain endothelial cells | mediated internalization of target protein Streptavidin | binds streptavidin | saturable delivery of streptavidin AF647 | mediated internalization of target protein Streptavidin |
